Where a chain is given by its changes, count along the chain named. Names may count otherwise. Values belong to the molecule of their own block, whether it stands above or below them.
Key:
[1] = Example 10: derhamnosylation of saponins in crude bark extract (50%) using WT and engineered rhamnosidases R1 to R5; format: biochemical, Quillaja saponaria; details: 7 h, 50% CBE, 35 degC; for % Right Peak: starting CBE 26; for % Left Peak: starting CBE 30; for % Middle Peak: starting CBE 44
Protocol: Lyophilised powders from clarified cell lysate expressing glucosidases (from Example 8 WT glucosidase and engineered glucosidase polypeptides G1 to G5) and rhamnosidases (from Example 9 WT rhamnosidase and engineered rhamnosidase polypeptides R1 to R5) were dissolved in 200 mM sodium acetate aqueous solution at pH 5.8 to prepare the enzyme solutions at 4 fold the final reaction concentration as shown in Tables 19 and 20.
Each rhamnosidase solution was combined with an equal volume of 200 mM sodium acetate aqueous solution at pH 5.8 and separately with an equal volume of 200 mM sodium acetate aqueous solution at pH 5.8 containing 2 mg/ml glucosidase G5. This is a sufficient loading of glucosidase to effect complete hydrolysis of the relevant glucose moiety within 4 hours.
CBE was adjusted to pH of 6.0 to 6.2 with 2M sodium hydroxide and an equal volume added to the enzyme solution to prepare the reaction mix (i.e. 50% CBE concentration in reaction mix) and the concentration of glucosidase and/or rhamnosidase is shown in Tables 19 and 20. The reaction mix was heated to 35 degC for the time indicated in Tables 19 and 20, after which the reaction was quenched by addition of an equal volume of MeCN containing 2% acetic acid and shaken at room temperature for 10 mins prior to centrifugation (10 min, 4 degC) to remove particulates. Samples were analysed by UV HPLC using method of Experiment 4-4.
The change in composition of the Left, Middle and Right peaks is shown in Tables 19 and 20. The composition changes by the action of the enzymes depending on the presence or absence of the partner enzyme. The extent of reaction is proportional to the enzyme concentration and the reaction time under these conditions. The tables show data for enzyme concentrations and the reaction times providing for equivalent extents of reaction. The improvement resulting from the mutations introduced for each variant is equal to the fold change in enzyme concentration×time (i.e. fold improvement=(enzyme concentration×time) for preceding variant÷(enzyme concentration×time) for later variant). A cumulative fold improvement over the original enzyme variant is calculated by the product of the individual fold improvements.

[2] = Example 9: screening of rhamnosidase variants for derhamnosylation of saponins in crude bark extract; format: biochemical, Quillaja saponaria; details: 18 h, CBE 75% v/v, 100 mM Sodium acetate pH 5.8; for Cumulative FIOP from WT: estimate
Protocol: Libraries of genetic variants encoding mutations in the wild type Kribbella flavida rhamnosidase (SEQ ID No. 1017) were prepared using molecular biology techniques, enzymes were prepared linked to a C-terminally located His-tag. Single monoclonal colonies were grown in 400 ul of expression medium and protein expressed. Cell pellets were lysed in 200 ul of the relevant buffer (Table 17).
Lysate was diluted appropriately in the relevant buffer to allow a lysate loading of the indicated % loading (1% loading corresponds to use of 2 ul original lysate in a 200 ul reaction).
Crude bark extract (CBE) obtained by aqueous extraction of Quillaja saponaria and containing at least 2.80 mg/ml QS-21 (by HPLC-UV) was adjusted to pH 6 by dropwise addition of 2M NaOH with stirring. The relevant concentration of the relevant glucosidase was added. The appropriate relative volume of pH 6 CBE (160 ul (for 80%) or 150 ul (for 75%)) was added to each well of the reaction plate. The reaction plate was sealed and incubated at the relevant temperature and time.
The reaction plate was quenched by adding 200 uL of MeCN (2% AcOH, 1 mg/mL hexanophenone) to each well of the plates. The quenched reaction plate was re-sealed and incubated at 20 deg C. with shaking for 10 min. The reaction plate was then centrifuged (10 min, 4 degC).
200 uL was transferred from each well of the quenched plate to the corresponding wells of a fresh 96 well plate and sealed. The plate was analysed by UV HPLC with the method described in Example 4.
Three key peaks of interest are apparent using this chromatography: Left Peak (retention time approximately 2.30-2.35 min) comprising mainly QS-17 family components; Middle Peak (retention time approximately 2.37-2.42 min) comprising mainly QS-18 family components and desglucosyl-QS-17 family components; and Right Peak (retention time approximately 2.44-2.50 min) comprising mainly QS-21 family components. Peak identity was supported by MS/MS.
Enzyme activity is calculated as the % conversion of the Left Peak present in the crude bark extract: […]

[3] = rhamnosidase 0.63 mg/ml + glucosidase G5 0.5 mg/ml
[4] = rhamnosidase 0.63 mg/ml, no glucosidase
[5] = R3 round: 35 deg C, lysate 0.4% v/v
[6] = R4 round: 35 deg C, lysate 0.125% v/v
[7] = R4 round: 35 deg C, lysate 0.125% v/v, negative control 26.09
[8] = R4 round: 35 deg C, lysate 0.125% v/v, negative control 29.62
[9] = R4 round: 35 deg C, lysate 0.125% v/v, negative control 44.29
[10] = R4 round: 35 deg C, lysate 0.125% v/v, negative control 46.84
[11] = rhamnosidase 0.31 mg/ml + glucosidase G5 0.5 mg/ml
[12] = rhamnosidase 0.31 mg/ml, no glucosidase

Cumulative Fold improvement in primary enzyme loading × time [1, 3]: 8
Fold improvement in primary enzyme loading × time [1, 3]: 2.0
Cumulative Fold improvement in primary enzyme loading × time [1, 4]: 8
Fold improvement in primary enzyme loading × time [1, 4]: 2.0
Right Peak % ([2]; R3 round: 35 deg C, lysate 0.4% v/v, negative control 26.60): 29.45%
Left Peak % ([2]; R3 round: 35 deg C, lysate 0.4% v/v, negative control 28.91): 18.85%
Middle Peak % ([2]; R3 round: 35 deg C, lysate 0.4% v/v, negative control 44.49): 51.70%
Right Peak % [2, 7]: 26.56%
Left Peak % [2, 8]: 27.65%
Middle Peak % [2, 9]: 45.79%
B1: Variant R3: engineered rhamnosidase polypeptide, variant of Kribbella flavida rhamnosidase SEQ ID No. 1017 (protein)
chain: MSFPAAPARLRFEHRTDPGPVLGIGTATPRLSWQVPTAPDDYRQAGYEVEIARGDAAPEQYTVDSADQVLVPWPGTPLAARESATVRVRVRGDGDWSQWSDPATVEAGLLSADDWTARFVSPRENAGHEAPAPLIGGVIDLPPDIAQARLYATAHGIYEPTLNGTRVGDEQLAPGWTAYEQRLRYQTYDVTDLVAPGENRLELLVGNGWYRGRMGFHGGHSLYGDRLAVLAQLEVTTATGEVKVLASDGTWTTRETNVLADDLYDGQHVDLRRTLGEPGPVDVLDADLSLLVAPDGPPVRVTDVLPAKAVTTSPAGKTLVDFGQNVVGRLRLRVRGGAAGDEIVLRHAEVLEDGELCVRPLRTAKATDSFVLAGPDEVTLEPTLTFHGFRYAEITGVPDLRAEDVEAVVVGSDLRRTGWFESSHPLLDRFHENVVWGMRGNFLDVPTDCPQRDERLGWTGDIQVFSPTASFLFDTAGFLTNWLADLIAEQHKDGSVPFVVPDVLRQPGPATAAWGDAATIVPWVLYERTGDAGLLARQLPSMRAWVDRMAGLAGDDLLWVGGFQFGDWLDPTAPPDDPFRAKADPDVLATAHLARSAEVVALAAEVVGAGELAREYAELAARVRQAFAAEYTTGSGRVLSDAATNYALALQWALLPTEAQRKRAGERLADLVRTAGFRISTGFVGTPLMADALADSGHPDLAYRLLLETGCPSWLYAVTMDATTVWERWDSMLPDGSINPGQMTSFNHYALGAVADWMHRRVAGLAPGDPGYRRIVVDPLFTAHLTKASARHLTPYGEAAVAWSRSGGRVRLEVTVPVGARARVAVPGESAPVEVGHGTHEWTADDVYGETPPLPADATIRQLIDHEPSWTTLAAAATRTGIVADDAELAGRLERYLDHPATELVDAVSPRGFSPSAEALHAELDSVLGR
modifications: Seq ID No. 1017 with mutations A143P, L214M, K219G, Q921H, G357C
% change in Left Peak [1, 3]: −38%
% change in Middle Peak [1, 3]: −99%
% change in Right Peak [1, 3]: 311%
% Right Peak [1, 3]: 81%
% Left Peak [1, 3]: 19%
% Middle Peak [1, 3]: 0%
% change in Left Peak [1, 4]: −45%
% change in Middle Peak [1, 4]: 21%
% change in Right Peak [1, 4]: 116%
% Right Peak [1, 4]: 30%
% Left Peak [1, 4]: 16%
% Middle Peak [1, 4]: 53%
% conversion (Right peak/Left Peak) (−neg control) [2, 5]: 13.06%
Cumulative FIOP from WT [2, 5]: 9.4
% conversion (Right peak/Left Peak) ([2]; R3 round: 35 deg C, lysate 0.4% v/v, negative control 47.91): 60.97%
FIOP (% area increase variant/pos control) ([2]; R3 round: 35 deg C, lysate 0.4% v/v, positive control R2): 3.3
% conversion (Right peak/Left Peak) (−neg control) [2, 6]: 2.16%
% conversion (Right peak/Left Peak) [2, 10]: 49.00%

Cumulative Fold improvement in primary enzyme loading × time [1, 11]: 16
Fold improvement in primary enzyme loading × time [1, 11]: 2.0
Cumulative Fold improvement in primary enzyme loading × time [1, 12]: 16
Fold improvement in primary enzyme loading × time [1, 12]: 2.0
Right Peak % [2, 7]: 27.00%
Left Peak % [2, 8]: 25.03%
Middle Peak % [2, 9]: 47.96%
Right Peak % ([2]; R5 round: 35 deg C, lysate 0.0625% v/v, negative control 26.23): 26.79%
Left Peak % ([2]; R5 round: 35 deg C, lysate 0.0625% v/v, negative control 28.76): 27.09%
Middle Peak % ([2]; R5 round: 35 deg C, lysate 0.0625% v/v, negative control 45.00): 46.12%
B2: Variant R4: engineered rhamnosidase polypeptide, variant of Kribbella flavida rhamnosidase SEQ ID No. 1017 (protein)
chain: B1 chain with G215S, G218N, G508S, G634A
modifications: Seq ID No. 1017 with mutations A143P, L214M, G215S, G218N, K219G, G357C, G508S, G634A, Q921H
% change in Left Peak [1, 11]: −42%
% change in Middle Peak [1, 11]: −93%
% change in Right Peak [1, 11]: 306%
% Right Peak [1, 11]: 79%
% Left Peak [1, 11]: 17%
% Middle Peak [1, 11]: 3%
% change in Left Peak [1, 12]: −45%
% change in Middle Peak [1, 12]: 22%
% change in Right Peak [1, 12]: 115%
% Right Peak [1, 12]: 30%
% Left Peak [1, 12]: 16%
% Middle Peak [1, 12]: 54%
% conversion (Right peak/Left Peak) (−neg control) [2, 6]: 5.06%
Cumulative FIOP from WT [2, 6]: 22.1
% conversion (Right peak/Left Peak) [2, 10]: 51.89%
FIOP (% area increase variant/pos control) ([2]; R4 round: 35 deg C, lysate 0.125% v/v, positive control R3): 2.3
% conversion (Right peak/Left Peak) (−neg control) ([2]; R5 round: 35 deg C, lysate 0.0625% v/v): 2.02%
% conversion (Right peak/Left Peak) ([2]; R5 round: 35 deg C, lysate 0.0625% v/v, negative control 47.70): 49.72%
